Experimental data: the RNAGym collection of RNA variant scans (doi:10.7554/elife.90254)

B1: OR4K15 (parent)
chain: GUUAACGGUCAUAGGCCAUGGAAACUAGGAGCACCAUUUCGCUGCCAGUGAAGAAAUGAACAAAGAAAAUCUGGGCCAGGCAGGCAUCAAAAGAAAUAGUCUUGCGCUCAACCAGAAAGUCUGUAAUCAUUUUAAGGGUA

Variants of: B1
Test: self-cleavage, relative activity (ratio to wild type); higher = more cleavage; in vitro, sequencing; the parent is a self-cleaving ribozyme

Variant | self-cleavage
GUUAACGGUCAUAGGCCAUGGAAACUAGGAGCACCAUCUCGCUGCCAGUGAAGAAAUGAACAAAGAAAAUCUGGGCCAGGCAGGCAUCAAAAGAAAUAGUCUUGCGCUCAACCAGUAAGUCUGUAAUCAUUUUAAGGGUA [U38C A116U] | 0.09
GUUAACGGUCAUAGGCCAUGGAAACUAGGAGCACCAUUUCGCUGCCAGUGAAGAAGUGAGCAAAGAAAAUCUGGGCCAGGCAGGCAUCAAAAGAAAUAGUCUUGCGCUCAACCAGAAAGUCUGUAAUCAUUUUAAGGGUA [A56G A60G] | 0.63
GUUAACGGUCUUAGGCCAUGGAAACUAGGAGCACCAUUUCGCUGCCAGUGAAGAAAUGAACAAAGAGAAUCUGGGCCAGGCAGGCAUCAAAAGAAAUAGUCUUGCGCUCAACCAGAAAGUCUGUAAUCAUUUUAAGGGUA [A11U A67G] | 1.5
GUUAACGGUCAUAGGCCAUGGAAACUAGGAGCACCAUUUCGCAGCCAGUGAAGAAGUGAACAAAGAAAAUCUGGGCCAGGCAGGCAUCAAAAGAAAUAGUCUUGCGCUCAACCAGAAAGUCUGUAAUCAUUUUAAGGGUA [U43A A56G] | 1.86
GUUAACGGUCAUAGGCCAUGGAAACUAGGAGCACCAUUUCGCUGCCAGUGAAGAAAUGAACAAAGAAAAUCUGGGCCAGGCAGGCAUCAGAAGAAAUAGUCUUGCGCUCAACCAGAAAGUCUGUAAUCAUUAUAAGGGUA [A90G U132A] | 0.56
GUUAACGGUCAUAGGCCAUGGAAACUAGGAGCACCAUUUCGCUGCCAGUGAAGAAAUGAACAAAGAAAAUCUGGGCCAGGCAGGCAUCAAAAGAAAUAGUCUUGCGCUCAACCAGAAGGUCUGUAAUCUUUUUAAGGGUA [A118G A129U] | 0.61
GUUAACGGUCAUAGGCCCUGGAAACUAGGAGCACCAUUUCGCUGCCAGUGAAGAAAUGAACAAAGAAAAUCUGGGCCAGGCAGGCAUCAAAAGAAAUAGUCUUGCGCUCAGCCAGAAAGUCUGUAAUCAUUUUAAGGGUA [A18C A111G] | 0.02
GUUAACGGUCAUAGGCCACGGAAACUAGGAGCACCAUUUCGCUGCCAGUGAAGAAAUGAACAAAGAAGAUCUGGGCCAGGCAGGCAUCAAAAGAAAUAGUCUUGCGCUCAACCAGAAAGUCUGUAAUCAUUUUAAGGGUA [U19C A68G] | 1.24
GUUAACGGUCAUAGGCCAUGGAGACUAGGAGCACCAUUUCGCUUCCAGUGAAGAAAUGAACAAAGAAAAUCUGGGCCAGGCAGGCAUCAAAAGAAAUAGUCUUGCGCUCAACCAGAAAGUCUGUAAUCAUUUUAAGGGUA [A23G G44U] | 1.21
GUUAAUGGUCGUAGGCCAUGGAAACUAGGAGCACCAUUUCGCUGCCAGUGAAGAAAUGAACAAAGAAAAUCUGGGCCAGGCAGGCAUCAAAAGAAAUAGUCUUGCGCUCAACCAGAAAGUCUGUAAUCAUUUUAAGGGUA [C6U A11G] | 0.47
GUUAACGAUCAUAGGCCAUGGAAACUAGGAGCACCAUUUCGCUGCCAGUGAAGAAAUGAACAAAGAAAGUCUGGGCCAGGCAGGCAUCAAAAGAAAUAGUCUUGCGCUCAACCAGAAAGUCUGUAAUCAUUUUAAGGGUA [G8A A69G] | 1.29
GUUAACGGUCAUAGGCCAUGGAAAUUAGGGGCACCAUUUCGCUGCCAGUGAAGAAAUGAACAAAGAAAAUCUGGGCCAGGCAGGCAUCAAAAGAAAUAGUCUUGCGCUCAACCAGAAAGUCUGUAAUCAUUUUAAGGGUA [C25U A30G] | 1.24
GUUAACGGUCAUAGGCCAUGUAAACUAGGAGCACCAUUUCGCUGCCAGUGAAGAAAUGAACAAAGAAAAUCUGGGCCAGGCAGGCAUCAAAAGAAAUAGUCUUGCGCUCAACCAGAAAGUCUGUAAUCAUUUUAAGGGUA [G21U] | 1.51
GUUAACGGUCAUAGGCCAUGGAAACUAGGAGCACCAUUUCGCUGCCAGUGAAGAAUUGAACAAAGAAAAUCUGGGCCAGGCAGGCAUCAAAAGAAGUAGUCUUGCGCUCAACCAGAAAGUCUGUAAUCAUUUUAAGGGUA [A56U A96G] | 1.62
GUUAACGGUCAUAGGCCAUGGAAACUAGGAGCGCCAUUUCGCUGCCAGUGAAGAAAUGAACAAAGAAAAUCUGGGCCAGGCAGGCAUCAAAAGAAAUGGUCUUGCGCUCAACCAGAAAGUCUGUAAUCAUUUUAAGGGUA [A33G A98G] | 0.77
GUUAACGGUCAUAGGCCAUGGAAACUAGGAGCACCAUUUAGCUGCCAGUGAAGAAAUGAACAAAGAAAAUCUGGGCCAGGCAGGCAUCAAAAGGAAUAGUCUUGCGCUCAACCAGAAAGUCUGUAAUCAUUUUAAGGGUA [C40A A94G] | 2.28
GUUAACGGUCAUAGGCCAUGGAAACUAGGAGCUCCAUUUCGCUGCCAGUGAAGAAAUGAACAAAGAAAAUCUGGGCCAGGCAGGCAUCAAAAGAAAUAGUCUUGCGCUCAACCAGAAAGUCUGUAAACAUUUUAAGGGUA [A33U U127A] | 2.74
GUUAACGGUCAUAGGCCAUGGAAACUAGGAGCACCAUUUCGCUGCCAGUGAAGAAAUGAACAAAGAAAAUCUGGGCCAGGCAGGCAUCGAAAGAAAUAGUCUUGCGUUCAACCAGAAAGUCUGUAAUCAUUUUAAGGGUA [A89G C107U] | 0
GUUAACGGUCAUAGGCCAUGGAAACUAGGAGCACCUUUUCGCUGCCAGUGAAGAAAUGAAUAAAGAAAAUCUGGGCCAGGCAGGCAUCAAAAGAAAUAGUCUUGCGCUCAACCAGAAAGUCUGUAAUCAUUUUAAGGGUA [A36U C61U] | 2.41
GUUAACGGUCAUAGGCCAUGGAAACUAGGAGCACCAUUUCGCUGCCAGUGAAGAAAUGAUCAAAGAAAAUCUGGGCCAGGCAGGCAUCAAAAGAAAUAGUCUUGCGCUCAACCAGAAUGUCUGUAAUCAUUUUAAGGGUA [A60U A118U] | 0.99
